The target of the test is eGFP-tagged htau 441 ΔK280 mutant (eGFP-tau ΔK280) (human) (UniProt P10636). Kind of test: fluorescence correlation spectroscopy (FCS/FCCS) in live cells; HEK293T cells overexpressing fluorescent-protein-fused tau; diffusion coefficient fitted (3D normal diffusion), mass by Stokes-Einstein, calibrated with eGFP-mCherry fusion; only tau not bound to microtubules.

In the case of “eGFP-tagged htau 441 ΔK280 mutant (eGFP-tau ΔK280) (from UniProt P10636-8 1-441) (natural protein)”, the stoichiometry N (commonly a count of units in the complex or per binding partner) worked out at 19.

Source of the values: article PMC11849630.
